According to the supplement of paper PMC7877785:
± gives the uncertainty stated by the source.

Assay: self-splicing fitness, log relative to wild type (ln ratio); higher = more splicing; Tetrahymena group I intron in knt gene, E. coli kanamycin selection, DiMSum; sequences stand for … in CUCUCU…GGAGGGAAAAGUUAUCAGGCAUGCACCUGGUAGCUAGUCUUUAAACCAAUAGAUUGCAUCGGUUUAAAAGGCAAGACCGUCAAAUUGCGGGAAAGGGGUCAACAGCCGUUCAGUACCAAGUCUCAGGGGAAACUUUGAGAUGGCCUUGCAAAGGGUAUGGUAAUAAGCUGACGGACAUGGUCCUAACCACGCAGCCAAGUCCUAAGUCAACAGAUCUUCUGUUGAUAUGGAUGCAGUUCACAGACUAAAUGUCGGUCGGGGAAGAUGUAUUCUUCUCAUAAGAUAUAGUCGGACCUCUCCUUAAUGGGAGCUAGCGGAUGAAGUGAUGCAACACUGGAGCCGCUGGGAACUAAUUUGUAUGCGAAAGUAUAUUGAUUAGUUUUGGAGUACUCGUGGUCG
Method in brief: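 DiMSum derived fitness as the error-weighted combination of fold changes across replicates, kanamycin versus no kanamycin, normalised to wild type. E. coli BL21(DE3) held the library, which randomised all eight P1ex-region intron nucleotides within the knt kanamycin-resistance gene on pET-22b(+). Six replicate transformations grew overnight at 37°C or 30°C on LB agar with or without 25 μg/mL kanamycin, also containing 100 μg/mL carbenicillin, 50 μM IPTG and 0.2% rhamnose, and pooled colonies were amplicon-sequenced on an Illumina HiSeq 2500.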

Sequence | self-splicing fitness (ln) (30 °C) | self-splicing fitness (ln) (37 °C)
CUUUAGCAAUAUUACGCCUU | -2.77 ± 0.31 | -2.94 ± 0.43
CUUUAGCAAUAUUACGCGCA | -2.5 ± 0.31 | -1.77 ± 0.42
CUUUAGCAAUAUUACGCGCG | -1.05 ± 0.14 | -0.656 ± 0.17
CUUUAGCAAUAUUACGCUUU | -2.36 ± 0.36 | -1.45 ± 0.41
CUUUAGCAAUAUUACGGAUC | -3.81 ± 0.35 | -1.53 ± 0.18
CUUUAGCAAUAUUACGGCCA | – | -0.666 ± 0.5
CUUUAGCAAUAUUACGGUCC | – | -1.77 ± 0.32
CUUUAGCAAUAUUACGUGCG | -2.29 ± 0.14 | -1.12 ± 0.12
CUUUAGCAAUAUUACGUGGC | – | -2.47 ± 0.44
CUUUAGCAAUAUUACGUUUC | – | -2.15 ± 0.23
GAAAAGCAAUAUUACGAGAA | -3.21 ± 0.48 | -1.11 ± 0.23
GAAAAGCAAUAUUACGAUAC | -1.21 ± 0.25 | -0.873 ± 0.22
GAAAAGCAAUAUUACGAUCC | -1 ± 0.11 | -0.724 ± 0.15
GAAAAGCAAUAUUACGCAAA | -0.0354 ± 0.26 | -1.79 ± 0.32
GAAAAGCAAUAUUACGCAAU | -2.28 ± 0.12 | -1.41 ± 0.17
GAAAAGCAAUAUUACGCAGG | -2.07 ± 0.076 | -1.85 ± 0.087
GAAAAGCAAUAUUACGCCAU | -2.84 ± 0.15 | -1.57 ± 0.15
GAAAAGCAAUAUUACGCCGU | -1.75 ± 0.097 | -0.396 ± 0.1
GAAAAGCAAUAUUACGCGCG | -0.276 ± 0.076 | -0.478 ± 0.11
GAAAAGCAAUAUUACGCGCU | -0.913 ± 0.11 | -0.301 ± 0.11
GAAAAGCAAUAUUACGGAUC | -1.04 ± 0.072 | -0.773 ± 0.087
GAAAAGCAAUAUUACGGCAC | -0.696 ± 0.058 | -0.217 ± 0.093
GAAAAGCAAUAUUACGGGAG | -2.95 ± 0.097 | -1.95 ± 0.086
GAAAAGCAAUAUUACGGGGA | -1.38 ± 0.16 | -2.44 ± 0.23
GAAAAGCAAUAUUACGGGUA | -1.29 ± 0.1 | -0.306 ± 0.095

Sequence | self-splicing fitness (ln) (30 °C) | self-splicing fitness (ln) (37 °C)
GAAAAGCAAUAUUACGGUCA | -0.479 ± 0.067 | 0.0562 ± 0.073
GAAAAGCAAUAUUACGGUCG | -0.446 ± 0.065 | -0.0366 ± 0.1
GAAAAGCAAUAUUACGUACC | -0.525 ± 0.092 | -0.528 ± 0.14
GAAAAGCAAUAUUACGUCAA | -2.62 ± 0.19 | -1.11 ± 0.14
GAAAAGCAAUAUUACGUCAG | -3.91 ± 0.33 | -1.39 ± 0.19
GAAAAGCAAUAUUACGUCCG | -1.72 ± 0.12 | -0.481 ± 0.14
GAAAAGCAAUAUUACGUUAA | -2.85 ± 0.15 | -1.78 ± 0.13
GAAAAGCAAUAUUACGUUCG | -1.01 ± 0.064 | -0.233 ± 0.08
GAACAGCAAUAUUACGAAGA | -1.13 ± 0.18 | -0.694 ± 0.16
GAACAGCAAUAUUACGAAGC | -1.37 ± 0.1 | -1.14 ± 0.13
GAACAGCAAUAUUACGAGAG | -3.49 ± 0.17 | -1.83 ± 0.1
GAACAGCAAUAUUACGAGGA | -2.14 ± 0.11 | -1.53 ± 0.14
GAACAGCAAUAUUACGAGUG | -1.78 ± 0.081 | -1.31 ± 0.1
GAACAGCAAUAUUACGAUCC | -2.18 ± 0.17 | -0.784 ± 0.24
GAACAGCAAUAUUACGCCAU | -3.82 ± 0.2 | -2.14 ± 0.18
GAACAGCAAUAUUACGCGUC | -2.99 ± 0.12 | -3.19 ± 0.16
GAACAGCAAUAUUACGGCAA | -0.669 ± 0.094 | -0.372 ± 0.091
GAACAGCAAUAUUACGGGCU | -3.02 ± 0.15 | -0.92 ± 0.11
GAACAGCAAUAUUACGGGGC | -3.05 ± 0.15 | -3.3 ± 0.21
GAACAGCAAUAUUACGGGGU | -2.39 ± 0.081 | -2.57 ± 0.15
GAACAGCAAUAUUACGGUGA | -1.08 ± 0.071 | 0.0381 ± 0.08
GAACAGCAAUAUUACGUCCC | -1.98 ± 0.16 | -1.25 ± 0.19
GAACAGCAAUAUUACGUCCU | -1.24 ± 0.09 | -0.941 ± 0.11
GAACAGCAAUAUUACGUUAU | -2.01 ± 0.066 | -1.13 ± 0.077
